Measured values reported in PMC7367873, “Dissecting the sequence determinants for dephosphorylation by the catalytic subunits of phosphatases PP1 and PP2A” (Nature Communications, 2020).

B1: ACADM (protein, UniProt P11310 26-421, looked up)
Medium-chain specific …: KANRQREPGLGFSFEFTEQQKEFQATARKFAREEIIPVAAEYDKTGEYPVPLIRRAWELGLMNTHIPENCGGLGLGTFDACLISEELAYGCTGVQTAIEGNSLGQMPIIIAGNDQQKKKYLGRMTEEPLMCAYCVTEPGAGSDVAGIKTKAEKKGDEYIINGQKMWITNGGKANWYFLLARSDPDPKAPANKAFTGFIVEADTPGIQIGRKELNMGQRCSDTRGIVFEDVKVPKENVLIGDGAGFKVAMGAFDKTRPVVAAGAVGLAQRALDEATKYALERKTFGKLLVEHQAISFMLAEMAMKVELARMSYQRAAWEVDSGRRNTYYASIAKAFAGDIANQLATDAVQILGGNGFNTEYPVEKLMRDAKIYQIYEGTSQIQRLIVAREHIDKYKN
B2: ACSL3 (protein, UniProt O95573 1-720, looked up)
Fatty acid CoA ligase Acsl3: MNNHVSSKPSTMKLKHTINPILLYFIHFLISLYTILTYIPFYFFSESRQEKSNRIKAKPVNSKPDSAYRSVNSLDGLASVLYPGCDTLDKVFTYAKNKFKNKRLLGTREVLNEEDEVQPNGKIFKKVILGQYNWLSYEDVFVRAFNFGNGLQMLGQKPKTNIAIFCETRAEWMIAAQACFMYNFQLVTLYATLGGPAIVHALNETEVTNIITSKELLQTKLKDIVSLVPRLRHIITVDGKPPTWSEFPKGIIVHTMAAVEALGAKASMENQPHSKPLPSDIAVIMYTSGSTGLPKGVMISHSNIIAGITGMAERIPELGEEDVYIGYLPLAHVLELSAELVCLSHGCRIGYSSPQTLADQSSKIKKGSKGDTSMLKPTLMAAVPEIMDRIYKNVMNKVSEMSSFQRNLFILAYNYKMEQISKGRNTPLCDSFVFRKVRSLLGGNIRLLLCGGAPLSATTQRFMNICFCCPVGQGYGLTESAGAGTISEVWDYNTGRVGAPLVCCEIKLKNWEEGGYFNTDKPHPRGEILIGGQSVTMGYYKNEAKTKADFFEDENGQRWLCTGDIGEFEPDGCLKIIDRKKDLVKLQAGEYVSLGKVEAALKNLPLVDNICAYANSYHSYVIGFVVPNQKELTELARKKGLKGTWEELCNSCEMENEVLKVLSEAAISASLEKFEIPVKIRLSPEPWTPETGLVTDAFKLKRKELKTHYQADIERMYGRK
B3: UPF1 (protein, UniProt Q92900 1-1129, looked up)
Regulator of nonsense …: MSVEAYGPSSQTLTFLDTEEAELLGADTQGSEFEFTDFTLPSQTQTPPGGPGGPGGGGAGGPGGAGAGAAAGQLDAQVGPEGILQNGAVDDSVAKTSQLLAELNFEEDEEDTYYTKDLPIHACSYCGIHDPACVVYCNTSKKWFCNGRGNTSGSHIVNHLVRAKCKEVTLHKDGPLGETVLECYNCGCRNVFLLGFIPAKADSVVVLLCRQPCASQSSLKDINWDSSQWQPLIQDRCFLSWLVKIPSEQEQLRARQITAQQINKLEELWKENPSATLEDLEKPGVDEEPQHVLLRYEDAYQYQNIFGPLVKLEADYDKKLKESQTQDNITVRWDLGLNKKRIAYFTLPKTDSGNEDLVIIWLRDMRLMQGDEICLRYKGDLAPLWKGIGHVIKVPDNYGDEIAIELRSSVGAPVEVTHNFQVDFVWKSTSFDRMQSALKTFAVDETSVSGYIYHKLLGHEVEDVIIKCQLPKRFTAQGLPDLNHSQVYAVKTVLQRPLSLIQGPPGTGKTVTSATIVYHLARQGNGPVLVCAPSNIAVDQLTEKIHQTGLKVVRLCAKSREAIDSPVSFLALHNQIRNMDSMPELQKLQQLKDETGELSSADEKRYRALKRTAERELLMNADVICCTCVGAGDPRLAKMQFRSILIDESTQATEPECMVPVVLGAKQLILVGDHCQLGPVVMCKKAAKAGLSQSLFERLVVLGIRPIRLQVQYRMHPALSAFPSNIFYEGSLQNGVTAADRVKKGFDFQWPQPDKPMFFYVTQGQEEIASSGTSYLNRTEAANVEKITTKLLKAGAKPDQIGIITPYEGQRSYLVQYMQFSGSLHTKLYQEVEIASVDAFQGREKDFIILSCVRANEHQGIGFLNDPRRLNVALTRARYGVIIVGNPKALSKQPLWNHLLNYYKEQKVLVEGPLNNLRESLMQFSKPRKLVNTINPGARFMTTAMYDAREAIIPGSVYDRSSQGRPSSMYFQTHDQIGMISAGPSHVAAMNIPIPFNLVMPPMPPPGYFGQANGPAAGRGTPKGKTGRGGRQKNRFGLPGPSQTNLPNSQASQDVASQPFSQGALTQGYISMSQPSQMSQPGLSQPELSQDSYLGDEFKSQIDVALSQDSTYQGERAYQHGGVTGLSQY
B4: MSN (protein, UniProt P26038 2-577, looked up)
Moesin: PKTISVRVTTMDAELEFAIQPNTTGKQLFDQVVKTIGLREVWFFGLQYQDTKGFSTWLKLNKKVTAQDVRKESPLLFKFRAKFYPEDVSEELIQDITQRLFFLQVKEGILNDDIYCPPETAVLLASYAVQSKYGDFNKEVHKSGYLAGDKLLPQRVLEQHKLNKDQWEERIQVWHEEHRGMLREDAVLEYLKIAQDLEMYGVNYFSIKNKKGSELWLGVDALGLNIYEQNDRLTPKIGFPWSEIRNISFNDKKFVIKPIDKKAPDFVFYAPRLRINKRILALCMGNHELYMRRRKPDTIEVQQMKAQAREEKHQKQMERAMLENEKKKREMAEKEKEKIEREKEELMERLKQIEEQTKKAQQELEEQTRRALELEQERKRAQSEAEKLAKERQEAEEAKEALLQASRDQKKTQEQLALEMAELTARISQLEMARQKKESEAVEWQQKAQMVQEDLEKTRAELKTAMSTPHVAEPAENEQDEQDENGAEASADLRADAMAKDRSEEERTTEAEKNERVQKHLKALTSELANARDESKKTANDMIHAENMRLGRDKYKTLRQIRQGNTKQRIDEFESM
B5: RARS (protein, UniProt P54136 1-660, looked up)
Arginine--tRNA ligase, …: MDVLVSECSARLLQQEEEIKSLTAEIDRLKNCGCLGASPNLEQLQEENLKLKYRLNILRKSLQAERNKPTKNMINIISRLQEVFGHAIKAAYPDLENPPLLVTPSQQAKFGDYQCNSAMGISQMLKTKEQKVNPREIAENITKHLPDNECIEKVEIAGPGFINVHLRKDFVSEQLTSLLVNGVQLPALGENKKVIVDFSSPNIAKEMHVGHLRSTIIGESISRLFEFAGYDVLRLNHVGDWGTQFGMLIAHLQDKFPDYLTVSPPIGDLQVFYKESKKRFDTEEEFKKRAYQCVVLLQGKNPDITKAWKLICDVSRQELNKIYDALDVSLIERGESFYQDRMNDIVKEFEDRGFVQVDDGRKIVFVPGCSIPLTIVKSDGGYTYDTSDLAAIKQRLFEEKADMIIYVVDNGQSVHFQTIFAAAQMIGWYDPKVTRVFHAGFGVVLGEDKKKFKTRSGETVRLMDLLGEGLKRSMDKLKEKERDKVLTAEELNAAQTSVAYGCIKYADLSHNRLNDYIFSFDKMLDDRGNTAAYLLYAFTRIRSIARLANIDEEMLQKAARETKILLDHEKEWKLGRCILRFPEILQKILDDLFLHTLCDYIYELATAFTEFYDSCYCVEKDRQTGKILKVNMWRMLLCEAVAAVMAKGFDILGIKPVQRM
B6: ATP5O (protein, UniProt P48047 24-213, looked up)
ATP synthase peripheral stalk …: FAKLVRPPVQVYGIEGRYATALYSAASKQNKLEQVEKELLRVAQILKEPKVAASVLNPYVKRSIKVKSLNDITAKERFSPLTTNLINLLAENGRLSNTQGVVSAFSTMMSVHRGEVPCTVTSASPLEEATLSELKTVLKSFLSQGQVLKLEAKTDPSILGGMIVRIGEKYVDMSVKTKIQKLGRAMREIV

What follows are molecules tested on GFP-14-3-3β and its binding proteins (assay: GFP-14-3-3β co-IP with LC-MS/MS label-free quantification, untreated versus PP1c-treated). Conditions: log2 difference; pairwise comparison PP1 vs untreated, label-free quantification, 3 replicates each.
Parameters: species or system human
With B1 the “Difference (log2), PP1 vs untreated” value was 2.074.

Same assay, conditions: pairwise comparison PP1 vs untreated
For B2, the “Difference (log2), PP1 vs untreated” value was 0.2597 log2.
B3 was tested, and the “Difference (log2), PP1 vs untreated” value was 0.3073 log2.
B4 was tested, and the “Difference (log2), PP1 vs untreated” value was 0.2864 log2.
In the case of B5, the “Difference (log2), PP1 vs untreated” value is reported as 0.2613 log2.
B6 was tested, and the “Difference (log2), PP1 vs untreated” value was 0.2696 log2.

These molecules were tested on GFP-14-3-3β (assay: GFP-14-3-3β co-IP with LC-MS/MS, untreated GFP-14-3-3β versus GFP control (14-3-3 interactome)). Conditions: log2 difference; pairwise comparison untreated vs GFP, label-free quantification, 3 replicates each.
Format: binding, human
With B1 the “Difference (log2), untreated vs GFP” value was -2.884.

Same assay, conditions: pairwise comparison untreated vs GFP
B2 was tested, and the “Difference (log2), untreated vs GFP” value was 0.1591 log2.
In the case of B3, the “Difference (log2), untreated vs GFP” value is reported as 0.2927 log2.
With B4 the “Difference (log2), untreated vs GFP” value was 0.7577 log2.
For B5, the “Difference (log2), untreated vs GFP” value was -0.5854 log2.
With B6 the “Difference (log2), untreated vs GFP” value was 0.8888 log2.
